{"source": "IntAct's records for PubMed 21370995", "target": "kcru_mouse Ckmt1 (UniProt P30275)", "data": [{"substance": "Leucine-rich repeat serine/threonine-protein kinase 2 (Homo sapiens), Q5S007 G2019S", "values": [{"measurement": "effect of a mutation on the interaction", "result": "increasing interaction"}]}]}
